According to patent publication US20110318356A1 (Novo Nordisk, published 2011):
Changes are numbered by the printed parent chain. In names and notes the source's numbering stands.

B1: HzTFPI4F36-CDRgrafted (initial CDR grafted version of humanized TFPI4F36) (antibody, human IgG4 S228P, kappa)
heavy: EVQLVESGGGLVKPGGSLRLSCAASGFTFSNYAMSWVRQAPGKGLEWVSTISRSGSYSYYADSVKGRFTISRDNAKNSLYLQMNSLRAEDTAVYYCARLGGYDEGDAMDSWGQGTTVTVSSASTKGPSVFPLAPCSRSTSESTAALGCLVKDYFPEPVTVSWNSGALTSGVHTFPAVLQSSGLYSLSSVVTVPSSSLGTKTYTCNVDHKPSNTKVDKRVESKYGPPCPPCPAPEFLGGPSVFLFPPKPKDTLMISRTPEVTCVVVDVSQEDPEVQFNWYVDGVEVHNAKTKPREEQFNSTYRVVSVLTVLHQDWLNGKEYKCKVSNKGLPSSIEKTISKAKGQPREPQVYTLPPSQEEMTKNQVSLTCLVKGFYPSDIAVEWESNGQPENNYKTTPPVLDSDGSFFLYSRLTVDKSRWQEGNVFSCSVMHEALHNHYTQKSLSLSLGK
light: DIVMTQTPLSLSVTPGQPASISCKSSQSLLESDGKTYLNWYLQKPGQSPQLLIYLVSILDSGVPDRFSGSGSGTDFTLKISRVEAEDVGVYYCLQATHFPQTFGGGTKVEIKRTVAAPSVFIFPPSDEQLKSGTASVVCLLNNFYPREAKVQWKVDNALQSGNSQESVTEQDSKDSTYSLSSTLTLSKADYEKHKVYACEVTHQGLSSPVTKSFNRGEC
notes: human kappa/IgG4(S241P); also called hz4F36CDRgraft
B2: HzTFPI4F36 (mAbTFPI2021) humanized monoclonal antibody (antibody, human IgG4 S228P, kappa, V domains shown)
VH: EVQLVESGGGLVKPGGSLRLSCAASGFTFSNYAMSWVRQTPEKRLEWVATISRSGSYSYFPDSVQGRFTISRDNAKNSLYLQMNSLRAEDTAVYYCARLGGYDEGDAMDSWGQGTTVTVSS
VL: DIVMTQTPLSLSVTPGQPASISCKSSQSLLESDGKTYLNWYLQKPGQSPQLLIYLVSILDSGVPDRFSGSGSGTDFTLKISRVEAEDVGVYYCLQATHFPQTFGGGTKVEIKR
notes: human kappa/IgG4(S241P); also called mAb2021; mAbTFPI4F36
B3: MuTFPI4F36 (TFPI-4F36A1B2) murine monoclonal antibody (antibody, mouse IgG1, kappa, V domains shown)
VH: B2 VH with Q3E, R19K, S78T, N84S, A88S, V93M, A97T, T116S
VL: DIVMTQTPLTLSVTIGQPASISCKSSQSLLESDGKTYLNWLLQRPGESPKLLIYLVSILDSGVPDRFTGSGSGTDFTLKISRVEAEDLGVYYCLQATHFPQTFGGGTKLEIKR
notes: murine kappa / IgG1; also called anti-TFPI4F36A1B2; Murine TFPI4F36
B4: HzTFPI4F36 HC-G42E, G44R, CDR2 (antibody, human IgG4 S228P, kappa, name in Kabat numbering, V domains shown)
VH: B2 VH with T40A, A49S
VL: B2 VL
notes: Mutated CDR-grafted heavy chain with wild type CDR-grafted light chain; Kabat numbering; also called HzTFPI4F36 G42E, G44R, Y59F, A60P, K64Q
B5: HzTFPI4F36 HC-G42E, G44R, A60P, K64Q (antibody, human IgG4 S228P, kappa, name in Kabat numbering, V domains shown)
VH: B2 VH with T40A, A49S, F60Y
VL: B2 VL
notes: Mutated CDR-grafted heavy chain with wild type CDR-grafted light chain; Kabat numbering; also called HzTFPI4F36 G42E, G44R, A60P, K64Q
B6: HzTFPI4F36 LC-P15I (antibody, human IgG4 S228P, kappa, name in Kabat numbering)
heavy: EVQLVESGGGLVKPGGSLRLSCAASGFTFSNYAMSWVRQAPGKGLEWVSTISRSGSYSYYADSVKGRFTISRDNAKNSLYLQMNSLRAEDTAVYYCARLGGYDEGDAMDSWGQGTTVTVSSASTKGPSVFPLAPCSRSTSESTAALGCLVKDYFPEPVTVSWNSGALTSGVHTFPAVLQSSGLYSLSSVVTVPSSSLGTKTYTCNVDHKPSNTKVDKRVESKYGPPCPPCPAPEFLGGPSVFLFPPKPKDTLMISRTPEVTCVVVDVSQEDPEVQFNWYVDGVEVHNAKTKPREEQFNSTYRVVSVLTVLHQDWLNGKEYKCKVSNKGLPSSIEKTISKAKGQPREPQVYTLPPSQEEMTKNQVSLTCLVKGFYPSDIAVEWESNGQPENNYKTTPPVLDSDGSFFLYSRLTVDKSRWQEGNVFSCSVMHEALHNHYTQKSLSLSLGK
light: B1 light with P15I
notes: Mutated CDR-grafted light chain with wild type CDR-grafted heavy chain; Kabat numbering
B7: HzTFPI4F36 LC-FR2 (antibody, human IgG4 S228P, kappa, name in Kabat numbering)
heavy: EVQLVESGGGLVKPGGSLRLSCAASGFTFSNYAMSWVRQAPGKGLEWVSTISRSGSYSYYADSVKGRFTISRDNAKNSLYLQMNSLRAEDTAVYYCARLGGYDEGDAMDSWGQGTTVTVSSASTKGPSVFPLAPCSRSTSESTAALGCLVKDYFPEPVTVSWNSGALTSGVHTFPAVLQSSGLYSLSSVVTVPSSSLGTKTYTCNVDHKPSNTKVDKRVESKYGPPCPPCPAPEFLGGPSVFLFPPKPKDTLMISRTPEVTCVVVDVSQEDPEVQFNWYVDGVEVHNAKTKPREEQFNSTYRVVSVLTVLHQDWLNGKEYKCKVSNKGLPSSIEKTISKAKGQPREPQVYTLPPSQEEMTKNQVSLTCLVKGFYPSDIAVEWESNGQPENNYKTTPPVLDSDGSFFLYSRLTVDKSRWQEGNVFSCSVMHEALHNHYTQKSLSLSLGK
light: B1 light with Y41L, K44R, Q47E, Q50K
notes: Mutated CDR-grafted light chain with wild type CDR-grafted heavy chain; Kabat numbering; also called patch mutant in LC FR2
B8: HzTFPI4F36 LC-P15I, FR2 (antibody, human IgG4 S228P, kappa, name in Kabat numbering)
heavy: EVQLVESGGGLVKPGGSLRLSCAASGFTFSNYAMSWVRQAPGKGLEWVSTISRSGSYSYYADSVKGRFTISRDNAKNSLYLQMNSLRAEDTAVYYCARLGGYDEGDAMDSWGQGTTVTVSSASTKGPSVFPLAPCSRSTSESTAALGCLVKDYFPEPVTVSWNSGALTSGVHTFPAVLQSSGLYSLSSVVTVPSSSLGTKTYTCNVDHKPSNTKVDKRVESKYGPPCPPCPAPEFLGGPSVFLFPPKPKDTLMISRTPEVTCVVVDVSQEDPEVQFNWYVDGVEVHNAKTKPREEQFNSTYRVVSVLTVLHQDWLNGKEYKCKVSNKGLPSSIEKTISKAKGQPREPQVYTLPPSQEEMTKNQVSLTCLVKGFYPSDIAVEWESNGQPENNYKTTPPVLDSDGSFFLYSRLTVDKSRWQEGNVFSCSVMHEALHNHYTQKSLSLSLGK
light: B1 light with P15I, Y41L, K44R, Q47E, Q50K
notes: as for B6
B9: HzTFPI4F36 LC-K39R, Q42E, Q45K (antibody, human IgG4 S228P, kappa, name in Kabat numbering, V domains shown)
VH: B2 VH with T40A, E42G, R44G, A49S, F60Y, P61A, Q65K
VL: B2 VL with K44R, Q47E, Q50K
notes: as for B6
B10: HzTFPI4F36 LC-Y36L (antibody, human IgG4 S228P, kappa, name in Kabat numbering, V domains shown)
VH: B2 VH with T40A, E42G, R44G, A49S, F60Y, P61A, Q65K
VL: B2 VL with Y41L
notes: as for B6
B11: HzTFPI4F36 LC-S63T (antibody, human IgG4 S228P, kappa, name in Kabat numbering, V domains shown)
VH: B2 VH with T40A, E42G, R44G, A49S, F60Y, P61A, Q65K
VL: B2 VL with S68T
notes: Mutated CDR-grafted light chain with wild type CDR-grafted heavy chain; human kappa/IgG4(S241P)
B12: HzTFPI4F36 HC-K64Q (antibody, human IgG4 S228P, kappa, name in Kabat numbering, V domains shown)
VH: B2 VH with T40A, E42G, R44G, A49S, F60Y, P61A
VL: B2 VL
notes: Mutated CDR-grafted heavy chain with wild type CDR-grafted light chain; Kabat numbering
B13: HzTFPI4F36 HC-S49A (antibody, human IgG4 S228P, kappa, name in Kabat numbering, V domains shown)
VH: B2 VH with T40A, E42G, R44G, F60Y, P61A, Q65K
VL: B2 VL
notes: as for B12
B14: HzTFPI4F36 HC-A60P (antibody, human IgG4 S228P, kappa, name in Kabat numbering, V domains shown)
VH: B2 VH with T40A, E42G, R44G, A49S, F60Y, Q65K
VL: B2 VL
notes: as for B12
B15: HzTFPI4F36 HC-KABAT CDR2 (antibody, human IgG4 S228P, kappa, name in Kabat numbering, V domains shown)
VH: B2 VH with T40A, E42G, R44G, A49S
VL: B2 VL
notes: as for B12
B16: HzTFPI4F36 HC-G44R, A60P, K64Q (antibody, human IgG4 S228P, kappa, name in Kabat numbering, V domains shown)
VH: B2 VH with T40A, E42G, A49S, F60Y
VL: B2 VL
notes: as for B12
B17: HzTFPI4F36 HC-FR3, A93T (antibody, human IgG4 S228P, kappa, name in Kabat numbering, V domains shown)
VH: EVQLVESGGGLVKPGGSLRLSCAASGFTFSNYAMSWVRQAPGKGLEWVSTISRSGSYSYYADSVKGRFTISRDNAKNSLYLQMSSLRSEDTAMYYCTRLGGYDEGDAMDSWGQGTTVTVSS
VL: B2 VL
notes: as for B12
B18: HzTFPI4F36 HC-A93T (antibody, human IgG4 S228P, kappa, name in Kabat numbering, V domains shown)
VH: B17 VH with S84N, S88A, M93V
VL: B2 VL
notes: as for B12
B19: HzTFPI4F36 HC-G42E, G44R, S49A CDR2 (antibody, human IgG4 S228P, kappa, name in Kabat numbering, V domains shown)
VH: B2 VH with T40A
VL: B2 VL
notes: as for B12
B20: HzTFPI4F36 HC-FR3 (antibody, human IgG4 S228P, kappa, name in Kabat numbering, V domains shown)
VH: B17 VH with T97A
VL: B2 VL
notes: as for B12
B21: HzTFPI4F36 HC-FR3, S77T (antibody, human IgG4 S228P, kappa, name in Kabat numbering, V domains shown)
VH: B17 VH with S78T, T97A
VL: B2 VL
notes: as for B12
B22: HzTFPI4F36 HC-FR2 (antibody, human IgG4 S228P, kappa, name in Kabat numbering, V domains shown)
VH: B2 VH with A49S, F60Y, P61A, Q65K
VL: B2 VL
notes: Mutated CDR-grafted heavy chain with wild type CDR-grafted light chain; Kabat numbering; also called patch mutant in HC FR2
B23: HzTFPI4F36 HC-G44R (antibody, human IgG4 S228P, kappa, name in Kabat numbering, V domains shown)
VH: B17 VH with G44R, S84N, S88A, M93V, T97A
VL: B2 VL
notes: as for B12
B24: HzTFPI4F36 HC-Y59F (antibody, human IgG4 S228P, kappa, name in Kabat numbering, V domains shown)
VH: B17 VH with Y60F, S84N, S88A, M93V, T97A
VL: B2 VL
notes: as for B12
B25: HzTFPI4F36 HC-S77T (antibody, human IgG4 S228P, kappa, name in Kabat numbering, V domains shown)
VH: B17 VH with S78T, S84N, S88A, M93V, T97A
VL: B2 VL
notes: as for B12
B26: HzTFPI4F36 HC-Q3E (antibody, human IgG4 S228P, kappa, name in Kabat numbering)
heavy: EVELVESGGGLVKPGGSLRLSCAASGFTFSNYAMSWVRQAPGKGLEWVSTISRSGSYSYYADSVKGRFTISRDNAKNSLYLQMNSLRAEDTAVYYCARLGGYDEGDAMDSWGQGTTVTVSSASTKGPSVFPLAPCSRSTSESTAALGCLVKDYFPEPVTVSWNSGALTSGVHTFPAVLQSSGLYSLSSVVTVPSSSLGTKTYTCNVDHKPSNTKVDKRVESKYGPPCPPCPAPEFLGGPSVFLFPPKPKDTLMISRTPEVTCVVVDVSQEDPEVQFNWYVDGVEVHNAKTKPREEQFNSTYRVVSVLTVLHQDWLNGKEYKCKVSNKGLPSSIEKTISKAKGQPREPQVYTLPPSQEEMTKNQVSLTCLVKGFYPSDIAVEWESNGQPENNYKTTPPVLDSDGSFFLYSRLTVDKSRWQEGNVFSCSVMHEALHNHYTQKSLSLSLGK
light: B1 light
notes: Mutated CDR-grafted heavy chain with wild type CDR-grafted light chain; human kappa/IgG4(S241P)
B27: HzTFPI4F36 HC-FR2, S49A (antibody, human IgG4 S228P, kappa, name in Kabat numbering, V domains shown)
VH: B2 VH with F60Y, P61A, Q65K
VL: B2 VL
notes: as for B12
B28: HzTFPI4F36 HC-Y59F, A60P (antibody, human IgG4 S228P, kappa, name in Kabat numbering, V domains shown)
VH: B2 VH with T40A, E42G, R44G, A49S, Q65K
VL: B2 VL
notes: as for B12
B29: HzTFPI4F36 HC-FR2, CDR2 (antibody, human IgG4 S228P, kappa, name in Kabat numbering, V domains shown)
VH: B2 VH with A49S
VL: B2 VL
notes: as for B12
B30: mouse/human chimera version of the anti-TFPI4F36 antibody (ChimTFPI4F36) (antibody, IgG4, V domains shown)
VH: B2 VH with Q3E, R19K, S78T, N84S, A88S, V93M, A97T, T116S
VL: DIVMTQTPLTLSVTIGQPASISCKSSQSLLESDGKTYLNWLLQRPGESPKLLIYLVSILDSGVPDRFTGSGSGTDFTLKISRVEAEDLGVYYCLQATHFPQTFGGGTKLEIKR
notes: also called Chimeric TFPI4F36; chimeric anti-TFPI4F36

Target: T1, recombinant full length human tissue factor pathway inhibitor (TFPI) (human, UniProt P10646 29-304)
T1 construct: also called TFPI1; human TFPI
Assay: SPR (Biacore)
Description: The affinity analyses were done using SRP as described below.
(§1) These were followed by a direct binding kinetic procedure on selected mAb constructs, with the monoclonal antibody covalently coupled via free amine groups to the carboxymethylated dextrane membrane (CM5) on the sensor chip surface.

| Binder | fold lower affinity than the original mouse TFPI4F36 antibody [fold] | Kd [nM] |
| --- | --- | --- |
| B1 | ≥ 100 | – |
| B2 | – | ~0.025 |
| B3 | – | ~0.03 |

Target: T1, recombinant full length human tissue …
Assay: SPR (Biacore), TFPI

| Binder | Kd [nM] |
| --- | --- |
| B4 | 0.039 |
| B5 | 0.093 |
| B2 | 0.026 |

Target: T1, recombinant full length human tissue …
Assay: cell-based or functional assay

| Binder | IC50, neutralization of TFPI inhibition of FXa [nM] |
| --- | --- |
| B2 | 12.6 |

Target: T1, recombinant full length human tissue …
Assay: cell-based or functional assay
Remark: another data set of the same source

| Binder | IC50, neutralization of TFPI inhibition of FVIIa/TF/FX [nM] |
| --- | --- |
| B2 | 3.8 |

Target: T1, recombinant full length human tissue …
Assay: SPR (Biacore), recombinant human TFPI

| Binder | Kd [nM] |
| --- | --- |
| B6 | 17 |
| B7 | 0.63 |
| B8 | 0.64 |
| B9 | > 0.03 |
| B10 | > 0.03 |
| B11 | 7.8 |

Target: T1, recombinant full length human tissue …
Assay: SPR (Biacore), recombinant human TFPI
Remark: another data set of the same source

| Binder | Kd [nM] |
| --- | --- |
| B12 | 2.5 |
| B4 | 0.039 |
| B13 | 3 |
| B14 | 2.2 |
| B15 | 0.9 |
| B16 | 0.03 |
| B17 | 4.1 |
| B5 | 0.093 |
| B18 | 2.7 |
| B19 | > 0.03 |
| B20 | 5.3 |
| B21 | 7.7 |
| B2 | 0.026 |
| B22 | 0.88 |
| B23 | 2.3 |
| B24 | 5.5 |
| B25 | 1.5 |
| B26 | 5.8 |
| B27 | 1.3 |
| B28 | 2.3 |
| B29 | > 0.03 |

Target: T1, recombinant full length human tissue …
Assay: SPR (Biacore), recombinant human TFPI over the mAb
Protocol: Binding interaction analysis was obtained by Surface Plasmon Resonance in a Biacore 3000. Capture of the relevant monoclonal antibody at a fixed concentration was obtained with immobilised mouse anti-IgG. Different concentrations of TFPI were tested.
as §1

| Binder | Kd [nM] | kon [M⁻¹ s⁻¹] |
| --- | --- | --- |
| B1 | 2.06 | 1.07e+06 |
| B3 | 0.0282 | 4.7e+06 |
| B30 | 0.0162 | 8.88e+06 |

Target: T1, recombinant full length human tissue …
Assay: SPR (Biacore T-100), mAb immobilised, full length human TFPI
Protocol: (§2) Binding interaction analysis was obtained by Surface Plasmon Resonance in a Biacore T-100 instrument. Capture of the relevant monoclonal antibody at a fixed concentration was obtained by direct immobilization to a CM5 chip of the mAb to a level of 500-1000 RU in 10 mM sodium acetate pH 4.5-5.0. […] Running and dilution buffer: 10 mM HEPES, 150 mM, 0.005% p20, pH 7.4. Regeneration was obtained by 10 mM Glycine, pH 1.7. Determination of kinetic and binding constants (kₒₙ, koff, KD) was obtained assuming a 1:1 interaction of TFPI and the antibody of interest using the Biacore T100 evaluation software. […] Regeneration of the chip was obtained by 10 mM Glycine, pH 1.7.

| Binder | Kd [nM] |
| --- | --- |
| B2 | 0.015 |

Target: T2, human TFPI short form (1-161 amino acid residues) (human, UniProt P10646 29-189)
T2 construct: also called TFPI161; TFPI (1-161)
Assay: SPR (Biacore T-100), mAb immobilised, TFPI161 (K1 and K2 domains)
Protocol: as §2

| Binder | Kd [nM] |
| --- | --- |
| B2 | 0.0455 |

Target: T1, recombinant full length human tissue …
Assay: SPR (Biacore T-100), mAb immobilised on CM5 chip, full length human TFPI, 1:1 model
Protocol: as §2

| Binder | Kd [nM] | koff [s⁻¹] | kon [M⁻¹ s⁻¹] |
| --- | --- | --- | --- |
| B2 | 0.015 | 3.58e-05 | 2.39e+06 |
